Results: publication PMC9482650, “Quantitative fragmentomics allow affinity mapping of interactomes” (Nature Communications, 2022)

Assays:
Assay in all cases: holdup assay
Parameters in all cases: key: below the threshold = too weak to quantify, mostly under pKd 3.1 to 4
APBA1_2, Q02410 = molecular target: T1, APBA1_2, Q02410
T1 sequence (Q02410 742-832, limits assumed, looked up): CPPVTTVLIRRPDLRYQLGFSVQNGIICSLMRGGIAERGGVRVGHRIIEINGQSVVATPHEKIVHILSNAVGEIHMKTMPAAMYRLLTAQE

IL16_3, Q14005 = molecular target: IL16_3, Q14005
FRMPD2_3, Q68DX3 = molecular target: FRMPD2_3, Q68DX3
GRIP2_7, Q9C0E4 = molecular target: GRIP2_7, Q9C0E4
PDZD2_2, O15018 = molecular target: T2, PDZD2_2, O15018
T2 sequence (O15018 329-429, limits assumed, looked up): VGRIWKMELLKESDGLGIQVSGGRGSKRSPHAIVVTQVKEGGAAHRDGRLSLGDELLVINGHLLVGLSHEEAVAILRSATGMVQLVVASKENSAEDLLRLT

LNX1_1, Q8TBB1 = molecular target: LNX1_1, Q8TBB1
TJP3_3, O95049 = molecular target: T3, TJP3_3, O95049
T3 sequence (O95049 375-456, limits assumed, looked up): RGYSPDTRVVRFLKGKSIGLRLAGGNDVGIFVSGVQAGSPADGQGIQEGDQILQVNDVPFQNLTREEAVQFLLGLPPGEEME

DLG2_2, Q15700 = molecular target: DLG2_2, Q15700
APBA3_1, O96018 = molecular target: T4, APBA3_1, O96018
T4 sequence (O96018 389-490, limits assumed, looked up): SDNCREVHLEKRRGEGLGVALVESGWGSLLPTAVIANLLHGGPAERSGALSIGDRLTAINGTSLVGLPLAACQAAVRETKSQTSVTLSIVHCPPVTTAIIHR

APBA2_1, Q99767 = molecular target: T5, APBA2_1, Q99767
T5 sequence (Q99767 563-664, limits assumed, looked up): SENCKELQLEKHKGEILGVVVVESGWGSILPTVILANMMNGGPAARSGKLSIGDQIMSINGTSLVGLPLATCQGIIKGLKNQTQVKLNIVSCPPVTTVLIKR

NHERF3_3, Q5T2W1 = molecular target: T6, NHERF3_3, Q5T2W1
T6 sequence (Q5T2W1 238-333, limits assumed, looked up): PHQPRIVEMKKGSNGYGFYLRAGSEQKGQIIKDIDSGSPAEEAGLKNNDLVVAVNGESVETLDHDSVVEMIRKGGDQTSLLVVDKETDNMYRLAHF

PDZD7_3, Q9H5P4 = molecular target: T7, PDZD7_3, Q9H5P4
T7 sequence (Q9H5P4 857-944, limits assumed, looked up): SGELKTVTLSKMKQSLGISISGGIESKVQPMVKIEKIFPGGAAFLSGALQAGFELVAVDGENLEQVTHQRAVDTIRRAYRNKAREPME

Inadl_9, Q8NI35 = molecular target: Inadl_9, Q8NI35
DVL3, Q92997 = molecular target: T8, DVL3, Q92997
T8 sequence (Q92997 244-331, limits assumed, looked up): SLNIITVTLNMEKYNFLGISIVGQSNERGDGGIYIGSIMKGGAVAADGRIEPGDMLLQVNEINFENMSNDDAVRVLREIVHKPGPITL

MAST1, Q9Y2H9 = molecular target: MAST1, Q9Y2H9
TJP1_3, Q07157 = molecular target: TJP1_3, Q07157
NHERF3_4, Q5T2W1 = molecular target: T9, NHERF3_4, Q5T2W1
T9 sequence (Q5T2W1 373-468, limits assumed, looked up): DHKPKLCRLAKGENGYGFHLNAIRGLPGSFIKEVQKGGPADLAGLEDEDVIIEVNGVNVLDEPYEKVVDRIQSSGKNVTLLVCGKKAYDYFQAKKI

DFNB31_3, Q9P202 = molecular target: T10, DFNB31_3, Q9P202
T10 sequence (Q9P202 811-907, limits assumed, looked up): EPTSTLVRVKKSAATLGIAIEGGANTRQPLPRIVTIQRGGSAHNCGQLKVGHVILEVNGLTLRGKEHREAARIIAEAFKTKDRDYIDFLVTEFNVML

LRRC7, Q96NW7 = molecular target: T11, LRRC7, Q96NW7
T11 sequence (Q96NW7 1440-1537, limits assumed, looked up): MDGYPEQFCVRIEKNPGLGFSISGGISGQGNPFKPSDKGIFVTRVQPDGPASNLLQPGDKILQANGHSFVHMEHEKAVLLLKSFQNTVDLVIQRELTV

GRIP1_3, Q9Y3R0 = molecular target: T12, GRIP1_3, Q9Y3R0
T12 sequence (Q9Y3R0 247-346, limits assumed, looked up): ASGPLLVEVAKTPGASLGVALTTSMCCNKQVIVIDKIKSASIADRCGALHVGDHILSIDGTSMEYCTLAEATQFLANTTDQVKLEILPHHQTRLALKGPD

HTRA3, P83110 = molecular target: T13, HTRA3, P83110
T13 sequence (P83110 354-453, limits assumed, looked up): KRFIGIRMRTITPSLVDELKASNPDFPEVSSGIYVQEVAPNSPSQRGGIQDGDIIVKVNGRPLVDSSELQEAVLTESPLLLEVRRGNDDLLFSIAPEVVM

LNX2_3, Q8N448 = molecular target: T14, LNX2_3, Q8N448
T14 sequence (Q8N448 463-564, limits assumed, looked up): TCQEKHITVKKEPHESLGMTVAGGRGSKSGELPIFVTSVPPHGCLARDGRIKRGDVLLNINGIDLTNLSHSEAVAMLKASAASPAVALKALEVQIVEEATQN

Inadl_5, Q8NI35 = molecular target: Inadl_5, Q8NI35
GIPC2, Q8TF65 = molecular target: GIPC2, Q8TF65
[1] = plain residues with an end cap or a label only (N-terminal biotin on a linker: (peg)3)
[2] = plain residues with an end cap or a label only (N-terminal biotin on a linker: ado-ado)

MAST1, Q9Y2H9, sequence (Q9Y2H9 962-1065): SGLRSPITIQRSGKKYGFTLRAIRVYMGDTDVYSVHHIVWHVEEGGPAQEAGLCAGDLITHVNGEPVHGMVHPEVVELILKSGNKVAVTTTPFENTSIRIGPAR
FRMPD2_3, Q68DX3, sequence (Q68DX3 1073-1166): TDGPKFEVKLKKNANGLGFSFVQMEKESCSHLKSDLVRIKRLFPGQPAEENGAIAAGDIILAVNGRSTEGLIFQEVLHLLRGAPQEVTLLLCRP
Inadl_5, Q8NI35, sequence (Q8NI35 673-780): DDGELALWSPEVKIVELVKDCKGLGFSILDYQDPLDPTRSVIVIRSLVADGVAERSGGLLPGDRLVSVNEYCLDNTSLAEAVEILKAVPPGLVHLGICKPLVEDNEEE
GRIP2_7, Q9C0E4, sequence (Q9C0E4 934-1023): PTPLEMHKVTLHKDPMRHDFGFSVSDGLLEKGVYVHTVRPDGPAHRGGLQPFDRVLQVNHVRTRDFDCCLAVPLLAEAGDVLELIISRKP
DLG2_2, Q15700, sequence (Q15700 189-283): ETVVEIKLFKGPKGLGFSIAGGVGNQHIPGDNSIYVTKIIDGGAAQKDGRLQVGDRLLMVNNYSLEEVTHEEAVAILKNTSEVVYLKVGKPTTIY
LNX1_1, Q8TBB1, sequence (Q8TBB1 261-371): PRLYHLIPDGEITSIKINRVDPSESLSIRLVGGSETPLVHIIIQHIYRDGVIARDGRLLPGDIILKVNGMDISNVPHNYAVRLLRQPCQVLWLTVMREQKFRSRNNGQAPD
TJP1_3, Q07157, sequence (Q07157 416-512): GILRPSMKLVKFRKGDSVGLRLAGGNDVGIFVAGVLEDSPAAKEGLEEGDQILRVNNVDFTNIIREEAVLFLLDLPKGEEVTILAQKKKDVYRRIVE
IL16_3, Q14005, sequence (Q14005 1107-1207): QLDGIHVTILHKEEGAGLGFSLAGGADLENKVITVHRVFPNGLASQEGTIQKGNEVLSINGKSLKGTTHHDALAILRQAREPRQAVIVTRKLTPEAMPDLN
GIPC2, Q8TF65, sequence (Q8TF65 112-203): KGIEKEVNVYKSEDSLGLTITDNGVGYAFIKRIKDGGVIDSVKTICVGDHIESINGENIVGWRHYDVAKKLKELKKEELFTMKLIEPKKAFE
Inadl_9, Q8NI35, sequence (Q8NI35 1530-1615): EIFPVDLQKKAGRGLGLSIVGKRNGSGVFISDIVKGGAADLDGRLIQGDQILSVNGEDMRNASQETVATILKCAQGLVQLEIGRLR

## NLNSSEGVPDLLV [SARS-CoV-E, P59637]
APBA1_2, Q02410; [1]
  pKd: below the threshold
IL16_3, Q14005; [1]
  pKd: below the threshold
FRMPD2_3, Q68DX3; [1]
  pKd: below the threshold
GRIP2_7, Q9C0E4; [1]
  pKd: below the threshold
PDZD2_2, O15018; [1]
  pKd: below the threshold
LNX1_1, Q8TBB1; [1]
  pKd: below the threshold
TJP3_3, O95049; [1]
  pKd: below the threshold
DLG2_2, Q15700; [1]
  pKd: below the threshold
APBA3_1, O96018; [1]
  pKd: below the threshold
APBA2_1, Q99767; [1]
  pKd: below the threshold
NHERF3_3, Q5T2W1; [1]
  pKd: below the threshold
PDZD7_3, Q9H5P4; [1]
  pKd: below the threshold
Inadl_9, Q8NI35; [1]
  pKd: below the threshold
DVL3, Q92997; [1]
  pKd: below the threshold
MAST1, Q9Y2H9; [1]
  pKd: 3.79
TJP1_3, Q07157; [1]
  pKd: below the threshold
NHERF3_4, Q5T2W1; [1]
  pKd: below the threshold
DFNB31_3, Q9P202; [1]
  pKd: below the threshold
LRRC7, Q96NW7; [1]
  pKd: below the threshold
GRIP1_3, Q9Y3R0; [1]
  pKd: below the threshold
HTRA3, P83110; [1]
  pKd: below the threshold
LNX2_3, Q8N448; [1]
  pKd: below the threshold
Inadl_5, Q8NI35; [1]
  pKd: below the threshold
GIPC2, Q8TF65; [1]
  pKd: below the threshold

## QKNRKAQEDL [CES3, Q6UWW8]
APBA1_2, Q02410; [2]
  pKd: below the threshold
IL16_3, Q14005; [2]
  pKd: below the threshold
FRMPD2_3, Q68DX3; [2]
  pKd: below the threshold
GRIP2_7, Q9C0E4; [2]
  pKd: below the threshold
PDZD2_2, O15018; [2]
  pKd: below the threshold
LNX1_1, Q8TBB1; [2]
  pKd: below the threshold
TJP3_3, O95049; [2]
  pKd: below the threshold
DLG2_2, Q15700; [2]
  pKd: below the threshold
APBA3_1, O96018; [2]
  pKd: below the threshold
APBA2_1, Q99767; [2]
  pKd: below the threshold
NHERF3_3, Q5T2W1; [2]
  pKd: below the threshold
PDZD7_3, Q9H5P4; [2]
  pKd: below the threshold
Inadl_9, Q8NI35; [2]
  pKd: below the threshold
DVL3, Q92997; [2]
  pKd: below the threshold
MAST1, Q9Y2H9; [2]
  pKd: below the threshold
TJP1_3, Q07157; [2]
  pKd: below the threshold
NHERF3_4, Q5T2W1; [2]
  pKd: below the threshold
DFNB31_3, Q9P202; [2]
  pKd: 4.05
LRRC7, Q96NW7; [2]
  pKd: below the threshold
GRIP1_3, Q9Y3R0; [2]
  pKd: below the threshold
HTRA3, P83110; [2]
  pKd: below the threshold
LNX2_3, Q8N448; [2]
  pKd: below the threshold
Inadl_5, Q8NI35; [2]
  pKd: below the threshold
GIPC2, Q8TF65; [2]
  pKd: below the threshold

## VYPNAKVELV [PDLIM4_iso2, P50479;P50479-1]
APBA1_2, Q02410; [2]
  pKd: 3.91
IL16_3, Q14005; [2]
  pKd: below the threshold
FRMPD2_3, Q68DX3; [2]
  pKd: below the threshold
GRIP2_7, Q9C0E4; [2]
  pKd: below the threshold
PDZD2_2, O15018; [2]
  pKd: below the threshold
LNX1_1, Q8TBB1; [2]
  pKd: below the threshold
TJP3_3, O95049; [2]
  pKd: below the threshold
DLG2_2, Q15700; [2]
  pKd: below the threshold
APBA3_1, O96018; [2]
  pKd: below the threshold
APBA2_1, Q99767; [2]
  pKd: below the threshold
NHERF3_3, Q5T2W1; [2]
  pKd: below the threshold
PDZD7_3, Q9H5P4; [2]
  pKd: 3.99
DVL3, Q92997; [2]
  pKd: below the threshold
MAST1, Q9Y2H9; [2]
  pKd: below the threshold
TJP1_3, Q07157; [2]
  pKd: below the threshold
NHERF3_4, Q5T2W1; [2]
  pKd: below the threshold
DFNB31_3, Q9P202; [2]
  pKd: below the threshold
LRRC7, Q96NW7; [2]
  pKd: below the threshold
GRIP1_3, Q9Y3R0; [2]
  pKd: below the threshold
LNX2_3, Q8N448; [2]
  pKd: below the threshold
Inadl_5, Q8NI35; [2]
  pKd: below the threshold
GIPC2, Q8TF65; [2]
  pKd: below the threshold
